Measurements reported in paper PMC5915679.

Assays:
[1] = molecular target: hGW182 ABD (455–841) with motif-1 deleted (human) (UniProt Q8NDV7); assay: SEC
[2] = molecular target: hGW182 ABD (455–841) with the hook deleted (human) (UniProt Q8NDV7); assay: SEC
[3] = molecular target: hGW182 ABD (455–841) with motif-2 and the hook deleted (human) (UniProt Q8NDV7); assay: SEC
[4] = molecular target: hGW182 ABD (455–841) with motif-1 and the hook deleted (human) (UniProt Q8NDV7); assay: SEC
[5] = molecular target: hGW182 ABD (455–841) with motif-1 and motif-2 deleted (human) (UniProt Q8NDV7); assay: SEC
[6] = molecular target: hGW182 ABD (455–841), tandem tryptophans of motif-1 and the hook mutated to alanine (human) (UniProt Q8NDV7); assay: pull-down
[7] = molecular target: hGW182 ABD (455–841), tandem tryptophans of motif-2 and the hook mutated to alanine (human) (UniProt Q8NDV7); assay: pull-down

In the case of “human Argonaute-2 (from UniProt Q9UKV8 1-859) (natural protein)”, the stoichiometry N [1] is reported as 2, the stoichiometry N [2] is reported as 2 and the stoichiometry N [3] is reported as 1. It also gave a stoichiometry N [4] of 1, a stoichiometry N [5] of 1 and a percent reduction of binding against the wild-type ABD [6] of under 10%. The percent reduction of binding against the wild-type ABD [7] was under 10%.
